{
  "source": "patent US20070265201A1",
  "about": "“INHIBITORS OF IN[…] TRA[…] FROM HCMV PROTEIN IE2” (priority 2005, published 2007)",
  "test_system": "C/EBPβ",
  "assay": "Specificity control: C/EBPβ expression by western blot of transfected HeLa-S3 lysates",
  "type": "cell-based",
  "conditions": "HeLa-S3 cell lysates, FIG. 4C",
  "description": "FIGS. 4A-4D. […] FIG. 4D is another specificity control showing that a control GFP expression vector was not affected by either IE2 291-343 or IE2 291-364. HeLa-S3 cells were transfected with both a GFP expression vector and cotransfected with either E2 291-343 or IE 291-364 expression vectors and GFP expression analyzed 24 hours later by a fluorescence activated cell sorter.\nBecause the IE2 291-364 region was previously mapped as one of three TBP binding sites on IE2, it was possible that the inhibitory function was due to interaction with TBP. To exclude this possibility, the expression of two other genes that contain TATA boxes in their promoters were investigated. First, an observed the expression of C/EBPβ from the expression vector by western blot (FIG. 4C) was conducted. […] Second, His-tagged inhibitors were cotransfected with ev GFP and the geometric mean brightness of transfected cells measured by flow cytometry (FIG. 4D). […] It is believed that the basis for the interaction is localized to residues 315-328 of the IE2 molecule because a variant of IE2 291-364 missing the 315-328 region (delA) lacks binding to Spi-1 ETS domain in a GST fusion pull-down assay (FIG. 5).",
  "data": [
    {"molecule": "GFP 291-364 (protein, left off: large carriers) SSHHGRGGFGGAASSSLLSCGHQSSGGASTGPRKKKSKRISELDNEKVRNIMKDKNTPFCTPNVQTRRGRVKID", "values": [
      {"measurement": "effect on expression of C/EBPβ protein (western blot)", "result": "no reduction"}
    ]}
  ]
}
